Legend:
[1] = biological target: mouse SOD1 expressed in mouse neuroblastoma cells (MNA) (mouse, UniProt P08228 2-154); test: IP from mouse neuroblastoma (MNA) cell lysate, immunoblot rabbit anti-SOD1
b-hSOD1-OX = biological target: T1, b-hSOD1-OX (oxidized with 10 mM hydrogen peroxide for 24 hours; residues not given ; Oxidised with 10 mM hydrogen peroxide for 24 hours. The oxidised residues are not stated, so the letters are left …); test: ELISA on coated protein, antibody titrated, OD 405nm
T1 construct: also called oxidized bacterially-expressed hSOD1 (GST fusion); not shown: N-terminal GST domain of pGEX-4T-3 and the vector-derived linker
T1 sequence (chain, as listed by the source limits assumed): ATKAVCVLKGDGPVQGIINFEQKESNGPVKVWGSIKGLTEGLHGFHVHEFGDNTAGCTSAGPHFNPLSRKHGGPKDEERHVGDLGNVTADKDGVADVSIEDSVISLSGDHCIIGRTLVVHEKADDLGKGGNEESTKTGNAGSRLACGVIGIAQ

[2] = biological target: T2, b-hSOD1-C (amino acids 1 to 116) (human, UniProt P00441 2-117); test: ELISA, captured b-hSOD1 truncations
T2 construct: also called C truncation; not shown: N-terminal thioredoxin (trx) domain from vector pET32-a-myc; C-terminal myc and 6 histidine tags
T2 sequence (P00441 2-117): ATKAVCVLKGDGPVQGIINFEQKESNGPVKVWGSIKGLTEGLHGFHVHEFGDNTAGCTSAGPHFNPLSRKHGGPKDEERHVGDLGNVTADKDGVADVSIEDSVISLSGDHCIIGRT

[3] = biological target: T3, b-hSOD1-B (amino acids 1 to 77) (human, UniProt P00441 2-78); test: ELISA, captured b-hSOD1 truncations
T3 construct: also called B truncation; not shown: N-terminal thioredoxin (trx) domain from vector pET32-a-myc; C-terminal myc and 6 histidine tags
T3 sequence (P00441 2-78): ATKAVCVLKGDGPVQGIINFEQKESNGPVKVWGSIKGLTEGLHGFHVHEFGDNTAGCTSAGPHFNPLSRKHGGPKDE

[4] = biological target: T4, b-hSOD1-I (amino acids 39 to 116) (human, UniProt P00441 39-117); test: ELISA, captured b-hSOD1 truncations
T4 construct: also called I truncation; not shown: N-terminal thioredoxin (trx) domain from vector pET32-a-myc; C-terminal myc and 6 histidine tags
T4 sequence (P00441 39-117): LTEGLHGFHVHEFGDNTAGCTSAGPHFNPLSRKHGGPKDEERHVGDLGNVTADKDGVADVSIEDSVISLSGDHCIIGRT

[5] = biological target: T5, b-hSOD1-D (amino acids 39 to 153) (human, UniProt P00441 40-154); test: ELISA, captured b-hSOD1 truncations
T5 construct: also called D truncation; not shown: N-terminal thioredoxin (trx) domain from vector pET32-a-myc; C-terminal myc and 6 histidine tags
T5 sequence (P00441 40-154): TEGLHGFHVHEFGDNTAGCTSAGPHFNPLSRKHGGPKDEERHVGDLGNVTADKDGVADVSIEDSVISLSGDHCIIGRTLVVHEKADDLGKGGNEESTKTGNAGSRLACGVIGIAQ

[6] = biological target: T6, bacterially-expressed hSOD1 (human, UniProt P00441 2-154); test: Octet QK, hSOD1 coupled to biosensor, antibody in solution
T6 construct: Not fully metallated, expected to be partly misfolded; also called b-hSOD1; GST-b-hSOD1; not shown: N-terminal glutathione sulfotransferase (GST) domain from vector pGEX-4T-3
T6 sequence (P00441 2-154): as the sequence (chain, as listed by the source limits assumed) above

[7] = biological target: T7, hSOD1 purified from human erythrocytes (human, UniProt P00441 2-154); test: as above
T7 construct: Bought from Sigma; also called E-hSOD1
T7 sequence (P00441 2-154): as the sequence (chain, as listed by the source limits assumed) above

B1: 311-3 (antibody, V domains shown)
VH: QVQLQQWGAGLLKPSETLSLTCAVYGGSFSGYYWNWIRQPPGMGLEWIGEIHQSGGPHYNPSLKSRVSISVDTSKNQVNLKLSSVTAADTAIYYCTELDDYWGQGTLVTVSS
VL: EIVLTQSPATLSLSPGERATLSCRASQSVSSYLAWYQQKPGQAPRLLIYNASNRATGIPARFSGSGSGTDFTLTIGSLEPEDFAVYYCQQRSNWPRTFGQGTKVEIK
notes: Human IgG kappa monoclonal from HuMab mouse hybridoma
B1: no binding [1].

B2: 312-19 (antibody, V domains shown)
VH: QVQLVQSGAEVKKPGSSVKVSCKASGGTFNNFVIGWVRQAPGQGLEWMGRIIPILDIANYAQKFQGRVTITADKSTSTVYMELNSLRSEDTAVYYCARTGNYYKPYDYWGQGTLVTVSS
VL: EIVLTQSPDFQSVTPKEKVTITCRASQSIGSSLHWYQQKPDQSPKLLIKYASQSFSGVPSRFSGSGSGTDFTLTINSLEAEDAAAYYCHQSSSLPITFGQGTRLEIK
notes: Human IgG kappa monoclonal from HuMab mouse hybridoma; Conformation-dependent antibody
B2: no binding [1].

B3: 597-120 (antibody, V domains shown)
VH: EVHLVESGGGLVQSGGSLRLSCAASGFSISGYWMSWVRQAPGKGLEWVANIKQDGGEKYYGDSVKGRFTISRDNAENSLYLQMSSLRAEDTAVYYCVMAGGLDYWGQGALVTVSS
VL: EIVLTQSPATLSLSPGERATLSCRASQSVSSYLAWYQQKPGQAPRLLIYDASNRATGIPARFSGSGSGTDFTLTISSLEPEDFAVYYCQQRSNWYTFGQGTKLEIK
notes: as for B2
B3: no binding [1].

B4: 303-8 (antibody, V domains shown)
VH: QVQLVQSGAEVKKPGSSVKVSCKASGGSFSIYVISWVRQAPGQGLEWMGRIIPILGTTNYAQKFQGRVTITADKSTSTAYMELSSLRSEDTAVYYCARPDSPNHSNTFDYWGQGTLVTVSS
VL: DIQMTQSPSSLSASVGDRVTITCRASQGISSWLAWYQQKPEKAPKSLIYGASSLQSGVPSRFSGSGSGTDFTLTISSLQPEDFATYYCQQYNSYPYTFGQGTKLEIK
notes: as for B2
B4: binds (b-hSOD1-OX); no binding [2]; no binding [3]. For the same binder, the binding result [4] was “no binding”, the binding result [5] was “no binding” and the Kd [6] was 1.2 nM. The Kd [7] was 8.8 nM.

B5: 591-37 (antibody, V domains shown)
VH: EVQLVQSGGGLVHPGGSLRLSCAGSGFTFSRYALHWVRQAPGKGLEWVSAIGIGGGTFYADSVKGRFTISRDNAKNSLYLQMNSLRAEDMAVYYCARDTYYDFFDAFDIWGQGTMVTVSS
VL: DIQMTQSPSSLSASVGDRVTITCRASQGISSWLAWYQQKPEKAPKSLIYAASSLQSGVPSRFSGSGSGTDFTLTISSLQPEDFATYYCQQYDSYPLTFGGGTKVEIK
notes: as for B1
B5: no binding [1].

B6: 358-11 (antibody, V domains shown)
VH: QVQLVESGGGVVQPGRSLRLSCAASGFTFSNYGIHWVRQAPGKGLEWVAIIWHDGSNSYYVDSVKGRFTMSRDNSKNTVYLQMNSLRAEDTAVYFCARIIGGAFDIWGQGTMVTVSS
VL: DIQMTQSPSSLSASVGDRVTITCRASQGISSWLAWYQQKPEKAPKSLIYAASSLQSGVPSRFSGSGSGTDFTLTISSLQPEDFATYYCQQYNSYPITFGQGTRLEIK
notes: as for B1
B6: no binding [1].

B7: 591-33 (antibody, V domains shown)
VH: EVQLVESGGGLVQPGGSLRLSCAASGFTFSRYWMSWVRQAPGKGLEWMANIKQDGSETHYVDSVKGRFTISRDNAKNSLYLQMNSLRAEDTAVYYCAIGDYWGQGTLVTVSS
VL: DIQMTQSPSSLSASVGDRVTITCRASQDISSWLAWYQQKPEKAPKSLIYAASSLQSGVPSRFSGSGSGTDFTLTISSLQPEDFATYYCQQYKSYPLTFGGGTKVEIK
notes: as for B1
B7: no binding [1].

B8: 114-41 (antibody, V domains shown)
VH: QVQLVQSGAEVKTPGASVKVSCKASGYTFTSFGISWVRQAPGQGLEWMGWISVYNDYTNYAQKFQGRVTMTTDTSTSTAYMELRSLRSDDTAMYYCARKRGGDMDYWGQGTLVTVSS
VL: DIQMTQSPSSVSASVGDRVTITCRASQDISSWLAWYQHKPGKAPKLLIYLASSLQSGVPSRFSGSGSGTDFTLTISSLQPEDFATYYCQQANSFPWTFGQGTKVEIK
notes: as for B2
B8: no binding [1].

B9: 14-173 (antibody, V domains shown)
VH: EVQLVESGGGLVQPGGSLRLSCAASGFTFSSFWMSWVRQAPGKGLEWVANIKHDGSEQDYVDSVKGRFTISRDNAKNSLYLQMNSLRAEDTAVYYCARGGIWFGPWGQGTLVTVSS
VL: VIWMTQSPSLLSASTGDRVTISCRMSQGISSYLAWYQQKPGKAPEVLIYAVSTLQSGVPSRFSGSGSGTDFTLTISCLQSEDFATYYCQQYYSFPYTFGQGTKLEIK
notes: as for B2
B9: no binding [2]; no binding [3]; no binding [4]. For the same binder, the binding result [5] was “no binding”, the Kd [6] was 19 nM and the Kd [7] was 3.5 nM. B9: binds [1].

B10: 358-22 (antibody, V domains shown)
VH: QVQLVESGGGVVQPGRSLRLSCAASGFTFRSYGMHWVRQAPGKGLEWVTLIWYDGSNKYYADSVKGRFTISRDNSKNTLYLQMNSLRVEDTAVYYCAREGFNWDAFDIWGQGTMVTVSS
VL: EIVLTQSPGTLSLSPGERATLSCRASQSVRISYLAWYQQKPGQAPRLLIYGTFSRATGIPDRFSGSGSGTDFTLTISRLEPEDFAVYYCQQYGSSMYTFGQGTKLEIK
notes: as for B2
B10: binds [1].

B11: 306-155 (antibody, V domains shown)
VH: EVQLVQSGAEVKKPGESLKISCKGSGYSFTSYWIGWVRQMPGKGLEWMGIIYPGDSDTRYSPSFQGQVTISADKSISTAYLQWSSLKASDTAMYYCARQGSGWYGNYFDYWGQGTLVTVSS
VL: EIVLTQSPGTLSLSPGERATLSCRASQSFSRGYLAWYQQKPGQAPRLLIYGASSRVTGIPDRFSGSGSGTDFTLTISRLEPEDFAVYYCQQYDSSPYTFGQGTKLEIK
notes: as for B2
B11: no binding [1].
